# Source: publication PMC6636993
# Tests used:
# [1] = biological target: PVY coat protein N-terminal deletion mutant ΔN49 (potato virus Y (NTN strain)); assay: SEC-MALS
# [2] = biological target: PVY coat protein N-terminal deletion mutant ΔN49 (potato virus Y (NTN strain)); assay: cryo-EM 2D class averages
substance,measurement,setting,value
PVY coat protein N-terminal deletion mutant ΔN49 (domain or fragment),stoichiometry N,[1],8
same,stoichiometry N,[2],8
